Experimental data published in US20190167721A1 (FOURTH MILITARY MEDICAL UNIVERSITY XI AN, published 2019).
One block for each binder: values may come before it.

What was measured:
glycosylated CEA [1] = biological target: T1, glycosylated CEA (human, UniProt P06731 35-685, glycosylated (sites and glycans not stated)); assay: flow cytometry on CRYPT cells, goat anti-mouse IgG-APC, logistic fit of MFI
T1 construct: whole, on cells; also called glycosylated CEA antigen; MG7
T1 sequence (looked up): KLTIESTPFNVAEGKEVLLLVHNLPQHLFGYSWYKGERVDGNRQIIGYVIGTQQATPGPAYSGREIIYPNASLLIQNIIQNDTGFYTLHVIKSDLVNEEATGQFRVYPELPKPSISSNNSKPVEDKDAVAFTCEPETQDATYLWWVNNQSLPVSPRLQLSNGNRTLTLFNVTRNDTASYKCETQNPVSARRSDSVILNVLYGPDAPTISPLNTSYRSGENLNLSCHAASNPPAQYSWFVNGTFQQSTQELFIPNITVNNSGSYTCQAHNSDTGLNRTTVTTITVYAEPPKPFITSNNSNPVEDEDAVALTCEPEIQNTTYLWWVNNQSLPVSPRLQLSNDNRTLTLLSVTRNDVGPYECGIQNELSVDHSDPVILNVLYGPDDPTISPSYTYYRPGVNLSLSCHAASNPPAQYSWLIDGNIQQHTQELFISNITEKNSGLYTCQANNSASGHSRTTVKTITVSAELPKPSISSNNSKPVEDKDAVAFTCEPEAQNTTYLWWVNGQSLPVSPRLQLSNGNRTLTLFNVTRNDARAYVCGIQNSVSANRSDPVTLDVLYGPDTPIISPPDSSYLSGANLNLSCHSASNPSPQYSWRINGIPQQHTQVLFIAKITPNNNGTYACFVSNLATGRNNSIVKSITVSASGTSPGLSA
Experimental: (§1) The antibodies FM2, FM4, FM5, and FM6 were diluted with PBS buffer containing 1% BSA, and incubated with SW620-CEA or CRYPT cells (final concentrations: 50 μg/ml, 5 μg/ml, 0.5 μg/ml, 0.05 μg/ml, 0.005 μg/ml, 0.0005 μg/ml) for 1 hour at room temperature; the cells were washed twice with PBS buffer containing 1% BSA, and then incubated with Goat Anti Mouse IgG-APC for 1 hour; the cells were washed twice with PBS buffer containing 1% BSA and resuspended in PBS buffer; the APC fluorescence values of the cells were read using BD Accuri C6 FACS.
(§2) Using the median fluorescence value (MFI) as the ordinate and the antibody concentration (μg/ml) as the abscissa, the S-curve was fitted using a logistic equation to calculate the antibody binding EC50, the results are shown in the following table: […]

[2] = biological target: T2, CEA overexpressed on SW620-CEA cells (CEACAM5, non-glycosylated state) (UniProt P06731 35-685); assay: flow cytometry on SW620-CEA cells, goat anti-mouse IgG-APC, logistic fit of MFI
T2 construct: whole, on cells; also called CEACAMS; CEA antigens with a lower degree of glycosylation
T2 sequence (looked up): T1 sequence (looked up)
Experimental: as §1, §2

glycosylated CEA [3] = biological target: T1, glycosylated CEA; assay: ratio of EC50 values from flow cytometry on cells

EC50 (glycosylated CEA [1]): 0.04 µg/mL
EC50 [2]: 0.2 µg/mL
B1: FM5 (scFv, V domains shown)
VH: QVQLKESGPGLVAPSQNLSITCTVSGFSLTSYAINWVRQPPGKGLEWLGIIWTGGGTNYNSALKSRLSISKDNSKSQVFLKMNSLQTDDTARYYCASGVYYFDYWGLGTTLTVSS
VL: DIVMTQSHKFMSTSVGDRVSITCKASQDVTTAVAWYQQKPGQSPKVLIFWASTRHTGVPDRFTGSGSGTDYTLTISSVQAEDLALYYCQQYYRTPRTFGGGTKLEIK
notes: also called antibody FM5; FM5 single-chain antibody

EC50 (glycosylated CEA [1]): 0.02 µg/mL
EC50 [2]: 0.8 µg/mL
B2: FM2 (scFv, V domains shown)
VH: DVKLVESGGGLVKPGGSLKLSCAASGFTFSRYTMSWVRQTPEKRLEWVATISNSGSYTYYRDSVKGRFTISRDNAKNTLYLQMSSLKSEDTAMYYCTRGSPWGQGTLVTVSA
VL: DIQMTQSPDSLSASVGETVTITCGASENIYGALNWYQRKQGKSPQLLIYGATKLADGMSSRFSGSGSNRQYSLKISSLHPDDVATYYCQNVLSKPYAFGGGTKLEIK
notes: also called antibody FM2; FM2 single-chain antibody

selectivity (glycosylated CEA on CRYPT against non-glycosylated CEA on SW620-CEA) (glycosylated CEA [3]): > 100 fold
EC50 (glycosylated CEA [1]): 0.51 µg/mL
B3: FM4 (scFv, V domains shown)
VH: EVKLVESGGGLVQPGGSLRLSCSISGFTFTDYYMNWVRQSPGKALEWLGFIRNKVNGDTTEYSASVKGRFTISRDISQSILYLQMNTLRTEDSATYYCARDKGIAYYFDYWGQGTTLTVSS
VL: QIVLSQSPAILFASPGEKVTMTCRASSSVSYIHWYQQKPGSSPKPWIHGTSNLASGVPARFSGSGSGTSYSLTISRMEAEDAATYYCQQWSSNLSTFGGGTKLEIK
notes: also called antibody FM4; FM4 single-chain antibody
